Laboratory results: patent US4643988A, “Amphipathic peptides” (Research Corporation, priority 1984, dated 1987)

Assay: Pore exclusion gradient gel electrophoresis of peptide/lipid complexes
Assay type: physicochemical
Details: range over complexes, ratio not stated
Protocol: Pore exclusion electrophoresis was performed on the resulting peptide/lipid complexes (FIG. 7), on 4-25% olyacrylamide gels using non-denaturing conditions for 24 to 36 hours. Gels were fixed and stained in the presence of 4% formaldehyde. DMPC is mixed with a trace of fluorescent marker (NBD). Different ratios of protein:lipid (1:1, 1:2.5, 1:5, 1:7.5) were incubated for 24-36 hours.

Apo A-I: apolipoprotein A-I, major HDL apoprotein component, isolated from human serum
Stokes diameter: 80-200 Å
